Laboratory results from patent publication US20230272045A1 (MONASH UNIVERSITY, published 2023).

Legend:
Assay in all cases: ELISA; ECM protein coated at 100 nM, BMP-2 0.1 to 100 nM
human plasma fibronectin = target: T1, human plasma fibronectin (human, UniProt P02751-8 32-2296, limits assumed)
T1 construct: Coated on ELISA plates at 100 nM; also called Fn
Method: (§1) ELISA plates (Greiner bio-one medium binding, Thermo Fisher Scientific) were coated with 100 nM of ECM proteins in […] of PBS for 1 h at 37° C. Then, wells were washed with […] of PBS-T (0.05% Tween-20) and blocked with […] of BSA solution (1% in PBS-T) for 1 h at room temperature. Wells without ECM protein coating, and wells blocked only with the BSA solution were used as controls for non-specific binding. ECM coated wells and control wells were further incubated 1 h at room temperature with solutions of BMP-2 (Peprotech), murine PDGF-BB (Peprotech), IL-1Ra (R&D Systems), or PIGF₁₂₃₋₁₄₁-fused proteins at concentrations ranging from 0 to 100 nM ([…] in PBS-T containing 0.1% BSA prepared in protein-low bind tubes (PROKEEP, Watson bio lab). Then, wells were washed 3 times with […] of PBS-T and incubated for 1 h with […] of biotinylated polyclonal detection antibodies in PBS-T with 0.1% BSA. Detection antibodies used were from BMP-2 DuoSet ELISA (R&D Systems, DY355) for BMP-2, PDGF-BB DuoSet ELISA (R&D Systems, DY8464) for PDGF-BB and IL-1Ra/IL-1F3
(§2) DuoSet ELISA (R&D Systems, DY480) for IL-1Ra. Wells were further washed 3 times with PBS-T and incubated for 20 min with […] of streptavidin-horseradish peroxidase (HRP). After three washes with PBS-T, TMB (ThermoFisher) was added followed by […] of stop solution (0.16M sulfuric acid). Concentrations of detection antibodies and streptavidin-HRP were used according to the manufacturer's instructions. To calculate the dissociation constants (KD) specific-binding values were fitted with a one site specific binding model using A450 nm=Bmax*[growth factors or IL-1Ra variants]/(KD+[growth factors or IL-1Ra variants]).

human vitronectin = target: T2, human vitronectin (human, UniProt P04004 20-478)
T2 construct: Coated on ELISA plates at 100 nM; also called Vn
T2 sequence (P04004 20-478 limits assumed): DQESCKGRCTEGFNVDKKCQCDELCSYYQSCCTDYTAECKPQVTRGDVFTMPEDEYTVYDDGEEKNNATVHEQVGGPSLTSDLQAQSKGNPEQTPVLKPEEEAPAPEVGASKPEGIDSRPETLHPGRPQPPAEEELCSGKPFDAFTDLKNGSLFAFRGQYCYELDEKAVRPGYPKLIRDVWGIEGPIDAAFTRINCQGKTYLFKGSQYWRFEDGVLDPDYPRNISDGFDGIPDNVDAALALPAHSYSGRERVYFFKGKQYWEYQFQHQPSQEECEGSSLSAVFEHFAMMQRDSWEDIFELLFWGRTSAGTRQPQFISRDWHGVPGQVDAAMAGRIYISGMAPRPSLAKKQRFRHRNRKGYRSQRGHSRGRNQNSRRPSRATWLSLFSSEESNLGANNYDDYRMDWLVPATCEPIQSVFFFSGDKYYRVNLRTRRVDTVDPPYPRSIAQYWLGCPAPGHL
Method: as §1, §2

human fibrinogen = target: T3, human fibrinogen (human, UniProt P02671 20-644; P02675 31-491; P02679 27-437, limits assumed)
T3 construct: Coated on ELISA plates at 100 nM; also called Fg
T3 sequence (looked up) 1: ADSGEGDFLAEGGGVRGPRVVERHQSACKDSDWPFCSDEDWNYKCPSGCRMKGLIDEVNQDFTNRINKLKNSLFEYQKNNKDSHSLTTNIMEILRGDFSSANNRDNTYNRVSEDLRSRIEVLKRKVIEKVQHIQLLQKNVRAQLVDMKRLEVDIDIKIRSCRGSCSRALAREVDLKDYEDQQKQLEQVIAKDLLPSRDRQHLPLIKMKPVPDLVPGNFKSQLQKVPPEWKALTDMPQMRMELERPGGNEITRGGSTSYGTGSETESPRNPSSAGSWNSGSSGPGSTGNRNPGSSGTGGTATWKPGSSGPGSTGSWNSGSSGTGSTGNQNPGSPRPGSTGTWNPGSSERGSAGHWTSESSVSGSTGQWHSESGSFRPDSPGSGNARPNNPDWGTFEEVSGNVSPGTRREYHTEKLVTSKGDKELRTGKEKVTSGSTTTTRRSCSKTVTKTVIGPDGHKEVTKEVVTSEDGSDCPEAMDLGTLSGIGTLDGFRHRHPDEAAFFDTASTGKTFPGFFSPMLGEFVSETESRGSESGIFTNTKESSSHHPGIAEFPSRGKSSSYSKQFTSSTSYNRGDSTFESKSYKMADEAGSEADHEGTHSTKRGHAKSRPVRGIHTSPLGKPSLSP
T3 sequence (looked up) 2: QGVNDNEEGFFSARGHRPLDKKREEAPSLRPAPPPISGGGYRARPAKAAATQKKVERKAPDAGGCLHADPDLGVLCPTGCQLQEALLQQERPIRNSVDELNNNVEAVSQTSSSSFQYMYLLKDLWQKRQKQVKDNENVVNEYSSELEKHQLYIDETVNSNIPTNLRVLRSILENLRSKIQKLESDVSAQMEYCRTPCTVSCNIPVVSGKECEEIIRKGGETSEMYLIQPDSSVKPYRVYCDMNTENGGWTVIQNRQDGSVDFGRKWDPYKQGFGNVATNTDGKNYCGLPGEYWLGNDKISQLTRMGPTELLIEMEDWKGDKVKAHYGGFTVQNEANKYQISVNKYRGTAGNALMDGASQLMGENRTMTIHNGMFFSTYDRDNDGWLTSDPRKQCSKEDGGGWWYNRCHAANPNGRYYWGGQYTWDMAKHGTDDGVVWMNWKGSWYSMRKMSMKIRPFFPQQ
T3 sequence (looked up) 3: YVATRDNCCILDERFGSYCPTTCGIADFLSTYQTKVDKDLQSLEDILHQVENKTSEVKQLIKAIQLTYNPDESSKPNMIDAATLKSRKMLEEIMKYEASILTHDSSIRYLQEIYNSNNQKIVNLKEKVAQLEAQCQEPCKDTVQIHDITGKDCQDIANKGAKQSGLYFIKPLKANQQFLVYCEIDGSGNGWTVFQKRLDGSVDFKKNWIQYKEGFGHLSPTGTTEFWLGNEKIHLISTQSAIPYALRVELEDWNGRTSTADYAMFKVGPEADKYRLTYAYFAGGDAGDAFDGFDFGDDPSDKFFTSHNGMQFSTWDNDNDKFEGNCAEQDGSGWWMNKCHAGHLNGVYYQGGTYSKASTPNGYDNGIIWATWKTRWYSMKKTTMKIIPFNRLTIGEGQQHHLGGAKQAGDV
Method: as §1, §2

T1 sequence (P02751 other isoform, or with tags, fused parts or gaps limits assumed): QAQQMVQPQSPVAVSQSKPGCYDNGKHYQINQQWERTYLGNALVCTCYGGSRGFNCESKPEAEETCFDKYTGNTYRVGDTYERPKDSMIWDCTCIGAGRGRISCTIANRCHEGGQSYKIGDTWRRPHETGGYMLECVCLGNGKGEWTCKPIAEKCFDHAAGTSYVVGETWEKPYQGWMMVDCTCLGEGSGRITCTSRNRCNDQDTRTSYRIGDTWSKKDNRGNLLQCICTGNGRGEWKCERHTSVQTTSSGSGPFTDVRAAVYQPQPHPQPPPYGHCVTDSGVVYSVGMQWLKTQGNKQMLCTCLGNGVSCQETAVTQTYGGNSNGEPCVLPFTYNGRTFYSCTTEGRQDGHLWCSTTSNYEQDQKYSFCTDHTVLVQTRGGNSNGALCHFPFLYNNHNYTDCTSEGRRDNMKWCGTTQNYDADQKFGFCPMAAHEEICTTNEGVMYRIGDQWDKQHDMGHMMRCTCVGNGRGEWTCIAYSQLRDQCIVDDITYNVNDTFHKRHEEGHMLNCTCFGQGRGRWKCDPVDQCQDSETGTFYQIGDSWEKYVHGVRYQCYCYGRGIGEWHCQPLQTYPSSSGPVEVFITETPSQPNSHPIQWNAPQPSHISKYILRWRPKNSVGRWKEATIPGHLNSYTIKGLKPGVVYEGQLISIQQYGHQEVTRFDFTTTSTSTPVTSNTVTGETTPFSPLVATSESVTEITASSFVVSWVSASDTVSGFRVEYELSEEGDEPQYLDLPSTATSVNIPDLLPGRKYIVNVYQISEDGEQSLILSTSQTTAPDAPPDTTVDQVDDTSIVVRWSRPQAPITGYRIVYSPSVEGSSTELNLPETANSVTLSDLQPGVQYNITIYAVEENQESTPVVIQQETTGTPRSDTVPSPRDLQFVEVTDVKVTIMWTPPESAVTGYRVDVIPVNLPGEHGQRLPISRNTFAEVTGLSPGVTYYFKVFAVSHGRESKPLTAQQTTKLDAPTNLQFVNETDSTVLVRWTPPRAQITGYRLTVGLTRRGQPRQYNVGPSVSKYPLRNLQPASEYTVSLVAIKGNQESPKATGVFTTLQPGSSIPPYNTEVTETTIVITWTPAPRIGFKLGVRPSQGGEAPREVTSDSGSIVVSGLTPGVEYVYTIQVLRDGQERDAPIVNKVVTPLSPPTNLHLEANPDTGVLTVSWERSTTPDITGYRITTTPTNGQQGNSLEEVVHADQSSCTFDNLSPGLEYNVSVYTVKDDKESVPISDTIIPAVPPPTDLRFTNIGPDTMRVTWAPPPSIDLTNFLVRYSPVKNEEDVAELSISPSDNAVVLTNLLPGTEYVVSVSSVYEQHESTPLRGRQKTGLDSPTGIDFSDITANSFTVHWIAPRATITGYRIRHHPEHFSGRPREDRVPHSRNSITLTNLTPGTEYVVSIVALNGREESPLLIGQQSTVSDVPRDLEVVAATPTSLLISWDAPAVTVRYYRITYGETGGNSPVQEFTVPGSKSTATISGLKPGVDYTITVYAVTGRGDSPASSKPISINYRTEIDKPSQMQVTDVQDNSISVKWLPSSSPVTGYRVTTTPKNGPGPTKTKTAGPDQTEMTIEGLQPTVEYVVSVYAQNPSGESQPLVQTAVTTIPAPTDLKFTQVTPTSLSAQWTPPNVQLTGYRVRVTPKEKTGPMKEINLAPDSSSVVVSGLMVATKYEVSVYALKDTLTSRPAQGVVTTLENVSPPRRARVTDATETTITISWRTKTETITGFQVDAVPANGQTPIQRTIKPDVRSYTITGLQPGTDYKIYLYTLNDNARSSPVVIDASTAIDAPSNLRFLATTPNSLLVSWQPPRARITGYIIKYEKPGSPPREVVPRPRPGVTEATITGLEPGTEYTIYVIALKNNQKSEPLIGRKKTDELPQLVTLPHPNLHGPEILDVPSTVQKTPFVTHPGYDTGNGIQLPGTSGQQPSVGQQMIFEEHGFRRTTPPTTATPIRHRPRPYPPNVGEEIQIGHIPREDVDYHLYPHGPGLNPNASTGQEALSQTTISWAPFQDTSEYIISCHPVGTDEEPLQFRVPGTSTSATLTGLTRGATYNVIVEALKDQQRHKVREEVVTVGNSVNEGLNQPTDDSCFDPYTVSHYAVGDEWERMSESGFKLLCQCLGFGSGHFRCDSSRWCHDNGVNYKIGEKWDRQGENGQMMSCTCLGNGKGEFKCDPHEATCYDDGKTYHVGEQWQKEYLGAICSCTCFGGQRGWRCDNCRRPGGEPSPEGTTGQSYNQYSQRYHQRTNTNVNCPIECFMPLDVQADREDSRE

binding result (human plasma fibronectin): binds | binding result (human vitronectin): binds | binding result (human fibrinogen): binds
B1: BMP-2 (bone morphogenetic protein-2, Peprotech) (ligand, murine, UniProt P21274 281-394, looked up)
chain: QAKHKQRKRLKSSCKRHPLYVDFSDVGWNDWIVAPPGYHAFYCHGECPFPLADHLNSTNHAIVQTLVNSVNSKIPKACCVPTELSAISMLYLDENEKVVLKNYQDMVVEGCGCR
notes: also called wild-type BMP-2
